Laboratory results reported in patent US6866851.
One block for each substance: values may come before it.

Key:
Test in all cases: cell-based or functional assay
[1] = biological target: GFRα1-RET receptor complex (cells transfected with GFRα1 and expressing RET)
[2] = biological target: GFRα2-RET receptor complex (cells transfected with GFRα2 and expressing RET)
[3] = biological target: GFRα3-RET receptor complex (cells transfected with GFRα3 and expressing RET)

- GFRα1-RET reporter activation relative to GDNF (% of full-length GDNF) [1]: < 60
Substance: GPG-F2c (GDNF homologue-scanning mutant, region F2c replaced by persephin sequence) (ligand)

- GFRα2-RET reporter activation (FIG. 4, percentage of reporter activation by GDNF) [2]: 27%
- GFRα1-RET reporter activation (FIG. 4, percentage of reporter activation by GDNF) [1]: 80%
Substance: GPG-Ha (GDNF homologue-scanning mutant, region Ha replaced by persephin sequence) (ligand)

- GFRα3-RET reporter activation relative to artemin (% of full length artemin) [3]: 70 to 80
Substance: PAP-Ha/F2ac (persephin with regions Ha, F2a and F2c from artemin) (ligand)

- GFRα2-RET reporter activation relative to GDNF [2]: < 30 % of GDNF
Substance: PNP-F2ac (His-Flag-PNP-F2ac, from mouse sequences) (ligand)

- GFRα2-RET reporter activation relative to GDNF [2]: 70 to 80 % of GDNF
Substance: PNP-Ha/F2ac (persephin with regions Ha, F2a and F2c from neurturin) (ligand)
